Assay [1] addresses N-terminally KGN-tagged Vpr (KGN-Vpr) (UniProt P12520). Nature of the assay: bimolecular fluorescence complementation (BiFC), flow cytometry on cells. Conditions: 293T cells, 48 hours post-transfection; parent: est. 100; read off a plot.
In assay [2] the target is C-terminally KGC-tagged Gag (Gag-KGC). Described as above. The following applies: 293T cells, 48 hours post-transfection; parent: est. 100; read off a plot.

“C-terminally KGC-tagged Gag (Gag-KGC) S487A”: the percent of parent in assay [1] stood at 35%. For “N-terminally KGN-tagged Vpr (KGN-Vpr) (from UniProt P12520) Q44E”, the percent of parent in assay [2] came out at 30%.

(Values after publication PMC3905668.)
